The results in this text go back to paper PMC6741143, “A putative merR family transcription factor Slr0701 regulates mercury inducible expression of MerA in the cyanobacterium Synechocystis sp. PCC6803” (MicrobiologyOpen, 2019).

In data set [1] the target is T1, Slr0701 (6x-His, MerR family regulator) (Synechocystis sp. PCC6803, UniProt Q55963 1-137).
T1 sequence: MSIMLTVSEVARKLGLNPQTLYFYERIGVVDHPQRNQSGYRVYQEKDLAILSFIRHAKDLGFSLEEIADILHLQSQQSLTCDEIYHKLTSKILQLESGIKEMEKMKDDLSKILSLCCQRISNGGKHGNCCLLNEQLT
As to the kind of experiment: SPR; 62 uM HgCl2; EMSA: 20 ul, 80 ng DNA, 0.5 or 1 ug protein, binding buffer not specified, 30 min at 25 C, 6% native PAGE in 0.5x TBE at 4 C, SYBR Green; SPR: Biacore T200, SA. The settings on record: protein: recombinant; tags: 6xHis (text says C-terminal; pET-28a NheI/EcoRI clone, also written 6x-His-Slr0701); chain copies: 2; label: 5' biotin on strand 1; blunt. Background: SPR reads the build-up and loss of mass on a sensor chip optically.

Data set [2] concerns the molecule itself. As to the kind of experiment: SDS-PAGE without 2-mercaptoethanol; purified 6x-His-Slr0701 on 15% SDS-PAGE under semi-denaturing condition (without 2-mercaptoethanol), compared with a sample with 2-mercaptoethanol; monomer to dimer.

B1: Pslr0701 50-bp oligonucleotide duplex (dsDNA)
DNA 1: TACTACAATATATTCCCTATACTTAGGTATAAGGTTGTAGGTTGATATAG
DNA 2: CTATATCAACCTACAACCTTATACCTAAGTATAGGGAATATATTGTAGTA
As to B1, in data set [1], the binding signal was ~1000 fold higher affinity with HgCl2 than without.

B2: 6x-His-Slr0701 protein (putative MerR family transcriptional regulator Slr0701) (natural protein, Synechocystis sp. PCC6803, UniProt Q55963 1-137, looked up)
chain: T1 sequence
notes: Slr0701, putative MerR family transcriptional regulator of Synechocystis sp; PCC6803; the slr0701 ORF amplified with primers from the start codon (GTG) to the stop codon and cloned into pET-28a(+) at NheI and EcoRI; not shown: His6, C-terminal, kept
In the case of B2, in data set [2], the stoichiometry N (as a rule, the number of molecules, sites or subunits per partner or assembly) was found to be 2.
